In patent US20240409645A1 (DUALYX, published 2024):

T1: human common cytokine receptor γ-chain (IL-2Rγ) (human, UniProt P31785 23-262, limits assumed)
T1 construct: Recombinant human IL-2Rγ protein, coated (ELISA) or amine-coupled to a CM5 chip (SPR); also called hu IL-2R; CD132
T1 sequence: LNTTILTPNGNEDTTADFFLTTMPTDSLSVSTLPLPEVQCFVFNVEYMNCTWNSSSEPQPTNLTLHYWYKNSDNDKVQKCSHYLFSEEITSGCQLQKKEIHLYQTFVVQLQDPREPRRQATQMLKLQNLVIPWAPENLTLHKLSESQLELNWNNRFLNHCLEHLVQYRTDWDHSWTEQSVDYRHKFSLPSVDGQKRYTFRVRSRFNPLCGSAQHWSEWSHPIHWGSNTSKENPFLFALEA

T2: mouse common cytokine receptor γ-chain (IL-2Rγ) (mouse, UniProt P34902 23-263, limits assumed)
T2 construct: Recombinant mouse IL-2Rγ protein; also called mo IL-2R; mouse IL-2R gamma
T2 sequence (looked up): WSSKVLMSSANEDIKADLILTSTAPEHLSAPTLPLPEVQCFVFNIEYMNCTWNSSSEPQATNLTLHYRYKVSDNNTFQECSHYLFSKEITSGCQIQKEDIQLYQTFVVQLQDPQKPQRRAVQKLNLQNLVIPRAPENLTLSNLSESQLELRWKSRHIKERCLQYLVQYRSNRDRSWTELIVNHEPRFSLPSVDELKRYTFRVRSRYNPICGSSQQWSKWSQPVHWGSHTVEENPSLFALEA

B1: FJ1427_P035MP07F01 (VHH)
VHH: QVQLVESGGGLVQAGGSLRLSCAASGRTLSRYAMGWFRQAPGKEREFVTANSWGGDTYYADSVQGRFTFSRDNAKNTVYLQMNSLQPEDTAVYYCAAAPTSFATTAYSSSNSYAYWGQGTQVTVSS
notes: tested as periplasmic extract; also called Clone nr
B2: FJ1427_P035MP07H09 (VHH)
VHH: QVQLVESGGGLVQAGGSLRLSCAASGRTLSRYAMGWFRQAPGKEREFVAANSWGGDTYYTDSVEGRFTFSRDNAKNAVYLQMNSLQPEDTAVYYCAAAPTSFATTAYSSSNSYTYWGQGTQVTVSS
notes: as for B1
B3: FJ1427_P035MP07G09 (VHH)
VHH: QVQLQESGGGLVQAGGSLRLSCAASGRTLSRVAMGWFRQAPGKEREFVAADSWGGDTFYADSVEGRFTFSRDNAKNAVYLQMNSLQPEDTAVYFCAGAPASFATTAYSSSNSYSYWGQGTQVTVSS
notes: tested as periplasmic extract; also called Clone nr; 647
B4: FJ1427_P035MP07A06 (VHH)
VHH: QVQLVESGGGLVQPGGSLRLSCAASGRTLSRYAMGWFRQAPGKEREFVTANSWGGDTYYADSVQGRFTFSRDNAKNTVYLQMNSLQPEDTAVYYCAAAPTSFATTAYSSSNSYAYWGQGTQVTVSS
notes: as for B1
B5: FJ1427_P035MP07B01 (VHH)
VHH: QVQLVESGGGLVQAGGSLRLSCAASGRTLSRYAMGWFRQAPGKEREFVTANSWGGDTYYADSVQGRFTFTRDNAKNTVYLQMNSLQPEDTAVYYCAAAPTSFATTAYSSSNSYAYWGQGTQVTVSS
notes: as for B1
B6: FJ1427_P035MP07B06 (VHH)
VHH: EVQLVESGGGLVQAGGSLRLSCAASGRTLSRYAMGWFRQAPGKEREFVTANSWGGDTYYADSVQGRFTFSRDNAKNTVYLQMNSLQPEDTAVYYCAAAPTSFATTAYSSSNSYAYWGQGTQVTVSS
notes: tested as periplasmic extract; also called Clone nr; 618
B7: FJ1427_P035MP07A10 (VHH)
VHH: QVQLVESGGGLVQAGGSLRLSCAASGRTLSRYAMGWFRQAPGSEREFVAASSWGGDTFYADSVEGRFTFSRDNAKNAVYLQMNSLQPEDTAAYYCAAAPTSFPTTAYSSSNSYAYWGQGTQVTVSS
notes: as for B1
B8: FJ1427_P035MP07C04 (VHH)
VHH: QVQLVESGGGVVQAGGSLRLSCAASGRTLSRYAMGWFRQAPGKEREFVTANSWGGDTYYADSVQGRFTFSRDNAKNTVYLQMNSLQPEDTAVYYCAAAPTSFATTAYSSSNSYAYWGQGTQVTVSS
notes: as for B1
B9: FJ1427_P035MP07F08 (VHH)
VHH: QVQLVESGGGLVQAGGSLRLSCAASGRTLSRDAMGWFRQAPGKEREFVAADSWGGDTFYADSVEGRFTFSRDNAKNAVYLQMNSLQPEDTAVYYCAGAPTSFATTAYSSSNSYRYWGQGTQVTVSS
notes: tested as periplasmic extract; also called Clone nr; 638
B10: FJ1427_P035MP07A09 (VHH)
VHH: QVQLVESGGGLVQAGGSLRLSCAASGRALSRLAMGWFRQAPGKEREFVVASSWGDDTFYADSVKGRFTFSRDNAKNTVYLQMNSLQPGDTAVYYCAAAPTSFATTAYSSSNSYAYWGQGTQVTVSS
notes: as for B1
B11: FJ1427_P035MP07A02 (VHH)
VHH: QVQLVESGGGLVQAGGSLRLSCAASGRALSRLAMGWFRQAPGKEREFVVASSWGDDTFYADSVKGRFTFSRDNAKNTVYLQMNSLQPGDTAVYYCAAAPTSFATTAYSSSNSYAYWGQGTQVTASS
notes: as for B1
B12: FJ1427_P035MP07B04 (VHH)
VHH: EVQLVESGGGLVQAGGSLRLSCAASGRTLSRYAMGWFRQAPGKEREFVTANSWGGDTYYADSVQGRFTFSRDNAKNTVYLQMNSLQPEDTAVYYCAAAPTSFATTAYSSSNSYAYWGQGTQVTVSS
notes: tested as periplasmic extract; also called Clone nr; 602
B13: FJ1427_P035MP07A03 (VHH)
VHH: EVQLVESGGGLVQAGGSLRLSCAASGRTLSRYAMGWFRQAPGKEREYVAIDSWGGDTFYADSVEGRFTFSRDNAKNEVYLQMNSLQPEDTAVYYCAGAPTSFATTAYSSSNSYRYWGQGTQVTVSS
notes: as for B1
B14: FJ1427_P035MP07B02 (VHH)
VHH: EVQLVESGGGLVQAGGSLRLSCAASGRALSRLAMGWFRQAPGKEREFVVASSWGDDTFYADSVKGRFTFSRDNAKNTVYLQMNSLQPGDTAVYYCAAAPTSFATTAYSSSNSYAYWGQGTQVTVSS
notes: as for B1
B15: FJ1427_P035MP07A05 (VHH)
VHH: EVQLVESGGGLVQAGGSLRLSCAASGRTLSRYAMGWFRQAPGKEREFVTANSWGGDTYYADSVQGRFTFSRDNAKNTVYLQMNSLQPEDTAVYYCAAAPTSFATTAYSSSNSYAYWGQGTQVTVSS
notes: as for B1
B16: FJ1427_P035MP07F03 (VHH)
VHH: QVQLVESGGGLVQTGGSLRLSCAASGRTLSRYAMGWFRQAPGKEREFVTANSWGGDTYYADSVQGRFTFSRDNAKNTVYLQMNSLQPEDTAVYYCAAAPTSFATTAYSSSNSYAYWGQGTQVTVSS
notes: as for B1
B17: FJ1427_P035MP07D04 (VHH)
VHH: EVQLVESGGGLVQAGGSLRLSCAASGRTLSRYAMGWFRQGPGKEREFVAADSWGGDTYYDDSVEGRFTFSRDITKNAVYLQMNSLQPEDTAVYYCAAAPTSFATTAYSSSNSYAYWGQGTQVTVSS
notes: as for B1
B18: FJ1427_P035MP07E07 (VHH)
VHH: EVQLVESGGGLVQAGGSLRLSCAASGRTLSRYAMGWFRQAPGSEREFVAASSWGGDTFYADSVEGRFTFSRDNAKNAVYLQMNSLQPEDTAAYYCAAAPTSFPTTAYSSSNSYAYWGQGTQVTVSS
notes: as for B1
B19: FJ1427_P035MP07A04 (VHH)
VHH: QVQLVESGGGLVQAGGSLRLSCAASGRTLSRYAMGWFRQGPGKEREFVAADSWGGDTYYDDSVEGRFTFSRDITKNAVYLQMNSLQPEDTAVYYCAAAPTSFATTAYSSSNSYAYWGQGTQVTVSS
notes: as for B1
B20: FJ1427_P035MP07B03 (VHH)
VHH: EVQLVESGGGLVQAGGSLRLSCAASGRALSRLAMGWFRQAPGKEREFVVASSWGDDTFYADSVKGRFTFSRDNAKNTVYLQMNSLQPGDTAVYYCAAAPTSFATTAYSSSNSYAYWGQGTQVTVSS
notes: as for B1

Columns and labels:
[1] = target: T1, human common cytokine receptor γ-chain …; experiment: P.E. off-rate SPR
Method: (§1) SPR was performed to determine dissociation rates using Biacore 3000 instrument (GE Healthcare). Briefly, human and mouse IL-2R proteins were immobilized on carboxylmethyl dextran sensor chip (CM5) at approximately 2500 RUs using amine coupling in acetate buffer (GE Healthcare). The VHH-containing P.E. were loaded with a flow rate of 30 uL/min and the off-rates were measured over a 120s period.

[2] = target: T2, mouse common cytokine receptor γ-chain …; experiment: P.E. off-rate SPR
Method: as §1

[3] = target: T1, human common cytokine receptor γ-chain …; experiment: P.E. binding ELISA
Method: (§2) In a binding ELISA, human or mouse IL-2Rα, IL-2Rβ and IL-2Rγ proteins were coated directly on maxisorp microtiter plates overnight at 4° C. Free binding sites were blocked using 4% Marvel in PBS for 1 hour. Next, 1:5 dilution of P.E. in 1% Marvel/PBS were added to wells and incubated for 1 hour. […] Binding specificity was determined based on O.D. at 450 nm values compared to negative controls.

[4] = target: T2, mouse common cytokine receptor γ-chain …; experiment: P.E. binding ELISA
Method: as §2

| Binder | koff [1] [s⁻¹] | koff [2] [s⁻¹] | PE binding ELISA OD [3] [OD450 nm] | PE binding ELISA OD [4] [OD450 nm] |
| --- | --- | --- | --- | --- |
| B1 | 0.00297 | 0.0855 | 0.556 | 0.047 |
| B2 | 0.00346 | – | 1.11 | – |
| B3 | 0.0024 | – | 1.14 | – |
| B4 | 0.00273 | 0.109 | 1.12 | 0.047 |
| B5 | 0.00235 | – | 0.518 | – |
| B6 | 0.00322 | 0.112 | 0.902 | 0.045 |
| B7 | 0.00242 | – | 0.759 | – |
| B8 | 0.00267 | – | 0.406 | – |
| B9 | 0.00185 | – | 1.24 | – |
| B10 | 0.00161 | 0.0119 | 0.518 | 0.055 |
| B11 | 0.00176 | 0.0116 | 0.829 | 0.063 |
| B12 | 0.00277 | 0.114 | 0.97 | 0.047 |
| B13 | 0.00174 | 0.00795 | 1.69 | 0.869 |
| B14 | 0.00232 | 0.0151 | 1.32 | 0.061 |
| B15 | 0.00323 | 0.127 | 0.973 | 0.046 |
| B16 | 0.00321 | – | 0.497 | – |
| B17 | 0.00243 | – | 0.792 | – |
| B18 | 0.00225 | – | 0.359 | – |
| B19 | 0.00126 | – | 0.507 | – |
| B20 | 0.00278 | 0.0132 | 1.55 | 0.058 |
